From US20070004634A1 (Novo Nordisk A/S, priority 1998, published 2007)

Legend:
MCF-7 cells = test: MCF-7 cell proliferation assay, IGF-1R agonist format; format: cell-based, human; settings: MCF-7 and MiaPaCa cells (Tables 27-28)
From the text: ; FIGS. 65A-65F), and were used for subsequent experiments.

[1] = tested on: free fat cells (adipocytes); test: Adipocyte / free fat cell (FFC) assay, 3H glucose incorporation into lipid; settings: for FFC Pot., agonist or antagonist: Table 8, letter before the potency
Procedure: Incorporation of ^3H into the lipid phase was determined by partitioning of lipid phase into a scintillant mixture, which excludes water-soluble ^3H products.

[2] = biological target: T1, human insulin receptor (HIR) (Homo sapiens, UniProt P06213); test: Insulin receptor binding, competition with 125I-labeled insulin (HIR Kd); settings: insulin competition
T1 construct: made in house

[3] = biological target: recombinant human insulin receptor (Homo sapiens, UniProt P06213); test: Substrate phosphorylation assay (HIR kinase); format: biochemical; settings: Table 8, HIR kinase assay
Procedure: Subsequently, a 2000-fold dilution of horseradish peroxidase (HRPO) conjugated phosphotyrosine antibody (Transduction Laboratories, Cat. No. E120H) in TBS was added. The plates were incubated for 30 min and washed 3 times with TBS. TMB (3,3′,5,5′-tetramethylbenzidine; Kem-En-Tec, Copenhagen, Denmark) was added. One substrate from Kem-En-Tec was added. After 10-15 min, the reaction was stopped by the addition of 1% acetic acid. The absorbance, representing the extent of substrate phosphorylation, was measured in a spectrophotometer at a wavelength of 450 nm.

[4] = biological target: T2, insulin receptor construct transfected into 32D cells (Homo sapiens, UniProt P06213); test: IR autophosphorylation assay in IR transfected 32D cells (ELISA); format: cell-based; settings: tested as MBP fusion peptides
T2 construct: expressed in transfected cells; host or cells: 32D cells (clone 969)
Procedure: The IR transfected 32D cells were seeded at […] in 96-well tissue culture plates and incubated overnight at 37° C. […] The culture media was decanted from the cell culture plates, and the diluted samples were added to the cells. The plates were incubated at 37° C. for 30 min. The stimulation medium was decanted from the plates, and cell lysis buffer (50 mM HEPES pH 7.2, 150 mM NaCl, 0.5% Triton X-100, 1 mM AEBSF, 10 KIU/ml aprotinin, 50 μM leupeptin, and 2 mM sodium orthovanadate) was added. The cells were lysed for 30 min.
In the ELISA portion of the assay, the cell lysates were added to the BSA-blocked anti-IR unit mAb (Upstate Biotechnology, Lake Placid, N.Y.) coated ELISA plates. After a 2 h incubation, the plates were washed 6 times with PBST and biotinylated anti-phosphotyrosine antibody (Upstate Biotechnology) is added. After another 2 h incubation, the plates were again washed 6 times. Streptavidin-Eu was then added, and the plates were incubated for 1 h. After washing the plates again, EG&G Wallac enhancement solution (100 mM acetone-potassium hydrogen pthalate, pH 3.2; 15 mM 2-naphtyltrifluoroacetate; 50 mM tri(n-octyl)-phosphine oxide; 0.1% Triton X-100) was added into each well, and the plates were placed onto a shaker for 20 min at RT.

IR = IR activity (agonist/antagonist) of MBP-peptide fusions, Table 10; test not named; settings: MBP-peptide fusion proteins; one symbol per monomer unit

B1: D112-12-RP30-IGF: dimer peptide (Site 1-Site 1) (protein)
chain: ADYKDCWARPCGDAANFYDWFVQQASKKGGSGGSGGSGGSSFYSCLESLVNGGAERSDGQWEGCRAAAGAPVPYPDPLEPRPG
- IGF-1R agonist activity, proliferation of MCF-7 and MiaPaCa cells, in words (MCF-7 cells): IGF-1R agonist activity

B2: MADYKDDDDKGSLDESFYDWFERQLGKKGGSGGSGGSGGSWLDQEWAWVQCEVYGRGCPSAAA(ETAG)PG (protein)
chain: MADYKDDDDKGSLDESFYDWFERQLGKKGGSGGSGGSGGSWLDQEWAWVQCEVYGRGCPSAAAGAPVPYPDPLEPRPG
modifications: E-tag
- activity in the free fat cell (FFC) assay / at IR, in words [1]: active as specific insulin receptor antagonists
- FFC Pot., agonist or antagonist [1]: N
- activity in the FFC assay using the standard concentration of insulin [1]: inactive
- activity in the FFC assay in the presence of a stimulating concentration of insulin [1]: antagonists
- IR / HIR binding affinity compared with monomer or homodimer peptides, in words [2]: substantially higher (several orders of magnitude) affinity
- Kinase Pot. (nM) [3]: Inactive

B3: RP30-IGF-12-D112: dimer peptide (Site 1-Site 1) (protein)
chain: ADYKDSFYSCLESLVNGGAERSDGQWEGCRGGSGGSGGSGGSCWARPCGDAANFYDWFVQQASKKAAAGAPVPYPDPLEPRPG
- IGF-1R agonist activity, proliferation of MCF-7 and MiaPaCa cells, in words (MCF-7 cells): IGF-1R agonist activity

B4: MADYKDDDDKGSLDESFYDWFERQLGKKGGSGGSWLDQEWAWVQCEVYGRGCPSAAA(ETAG)PG (protein)
chain: MADYKDDDDKGSLDESFYDWFERQLGKKGGSGGSWLDQEWAWVQCEVYGRGCPSAAAGAPVPYPDPLEPRPG
modifications: E-tag
- activity in the free fat cell (FFC) assay / at IR, in words [1]: active as specific insulin receptor antagonists
- FFC Pot., agonist or antagonist [1]: N
- activity in the FFC assay using the standard concentration of insulin [1]: inactive
- activity in the FFC assay in the presence of a stimulating concentration of insulin [1]: antagonists
- IR / HIR binding affinity compared with monomer or homodimer peptides, in words [2]: substantially higher (several orders of magnitude) affinity
- Kinase Pot. (nM) [3]: Inactive

B5: H2C-9aa-H2C: MBP fusion, H2C dimer (Site 1-Site 1) with 9 amino acid linker (protein)
chain: NNNNLGIEGRISEFIEGRAQPAMAFHENFYDWFVRQVSGGSGGSGGSFHENFYDWFVRQVSAAAGAPVPYPDPLEPRAA
modifications: left off: large carriers; small tags and cut ends
- stimulation of autophosphorylation of IR [4]: active

B6: H2C-3aa-H2C: MBP fusion, H2C dimer (Site 1-Site 1) with 3 amino acid linker (protein)
chain: NNNNLGIEGRISEFIEGRAQPAMAFHENFYDWFVRQVSGGSFHENFYDWFVRQVSAAAGAPVPYPDPLEPRAA
modifications: left off: large carriers; small tags and cut ends
- stimulation of autophosphorylation of IR [4]: active

B7: 463 (protein)
chain: NNNNLGIEGRISEFIEGRAQPAMAFHENFYDWFVRQVSGGSFHENFYDWFVRQVSAAAGAPVPYPDPLEPRAA
modifications: MBP fusion
- Act. (activity) (IR): A—A
